The record followed here is article PMC11885566.

This assay deals with stable soluble Omicron EG.5.1 (6P) S trimer (SARS-CoV-2). Nature of the assay: cryo-EM structure.

What is called stoichiometry N is the number of molecules, sites or subunits per partner or assembly. With “stable soluble Omicron EG.5.1 (6P) S trimer (domain or fragment)”, the stoichiometry N amounted to 3.
